Consider six molecules from patent EP4737484A1 (Phil Rivers Technology Co., Ltd, dated 2026).

Test [1] addresses T1, huIL-1β-His (human, UniProt P01584 117-269). Description: ELISA, plate coated with huIL-1β-His, anti-human IgG Fc-HRP. Background: In an ELISA, binding on a coated surface is turned into a signal by an enzyme label.
Test [2] deals with T1, huIL-1β-His. Description: ELISA, plate coated with huIL-1β-His, anti-human IgG Fc-HRP; positive control.
Test [3] deals with T2, full-length human PD-L1 on huPD-L1-CHO-K cells (human, UniProt Q9NZQ7 19-290).
T2 construct: also called huPD-L1-overexpressing-CHO-K cells; CD3L-PD-L1-CHO
Description: flow cytometry on huPD-L1-CHO-K cells, PE anti-human IgG Fc. Background: Flow cytometry measures light scatter and fluorescence of single cells or particles in a stream.

In test [4] the target is T3, huPD-L1-His (human, UniProt Q9NZQ7 19-238).
T3 construct: also called human recombinant protein huPD-L1-His; antigen PD-L1
Description: ELISA, plate coated with huPD-L1-His, anti-human IgG Fc-HRP.

Test [5] has as its target T1, huIL-1β-His. Briefly: bridging ELISA: coated huPD-L1-Fc, antibody, then huIL-1β-His, anti-His-HRP.
Test [6] has as its target huPD-L1-Fc (human). Described as above.
Test [7] deals with T3, huPD-L1-His. Briefly: bridging ELISA: coated huIL-1β-Fc, antibody, then huPD-L1-His, anti-His-HRP.
Test [8] deals with T4, huIL-1β-Fc (human).
T4 construct: also called huIL-1β-Fe
The description is as above.

B1: BsAb17 (bispecific antibody)
heavy: not shown
light: not shown
chain 1: not shown
chain 2: EIVLTQSPDFQSVTPKEKVTITCRASQSIGSSLHWYQQKPDQSPKLLIKYASQSFSGVPSRFSGSGSGTDFTLTINSLEAEDAAAYYCHQSSSLPFTFGPGTKVDIKSSASTKGPSVFPLAPSSKSTSGGTAALGCLVKDYFPEPVTVSWNSGALTSGVHTFPAVLQSSGLYSLSSVVTVPSSSLGTQTYICNVNHKPSNTKVDKKVEPKSC
notes: Atezolizumab heavy (Knob) and light chain; Canakinumab VH-CL-Fc (hole); also called Construct BsAb17
B1: in test [1], the binding result was “binds”.

B2: BsAb22 (bispecific antibody)
heavy: not shown
light: not shown
chain 1: not shown
chain 2: EIVLTQSPDFQSVTPKEKVTITCRASQSIGSSLHWYQQKPDQSPKLLIKYASQSFSGVPSRFSGSGSGTDFTLTINSLEAEDAAAYYCHQSSSLPFTFGPGTKVDIKSSASTKGPSVFPLAPSSKSTSGGTAALGCLVKDYFPEPVTVSWNSGALTSGVHTFPAVLQSSGLYSLSSVVTVPSSSLGTQTYICNVNHKPSNTKVDKRVEPKSC
notes: Atezolizumab heavy chain (Fc with F405L) and light chain; Canakinumab VH-CL-Fc (K409R); also called Construct BsAb22
As to B2, in test [1], the binding result was “binds”.

B3: Canakinumab (antibody, human IgG1, kappa, V domains shown)
VH: QVQLVESGGGVVQPGRSLRLSCAASGFTFSVYGMNWVRQAPGKGLEWVAIIWYDGDNQYYADSVKGRFTISRDNSKNTLYLQMNGLRAEDTAVYYCARDLRTGPFDYWGQGTLVTVSS
VL: EIVLTQSPDFQSVTPKEKVTITCRASQSIGSSLHWYQQKPDQSPKLLIKYASQSFSGVPSRFSGSGSGTDFTLTINSLEAEDAAAYYCHQSSSLPFTFGPGTKVDIKR
notes: also called positive control Canakinumab
For B3, the binding result in test [2] is “binds”.

B4: BsAb18 (bispecific antibody)
heavy: not shown
light: not shown
chain 1: not shown
chain 2: QVQLVESGGGVVQPGRSLRLSCAASGFTFSVYGMNWVRQAPGKGLEWVAIIWYDGDNQYYADSVKGRFTISRDNSKNTLYLQMNGLRAEDTAVYYCARDLRTGPFDYWGQGTLVTVSSASVAAPSVFIFPPSDEQLKSGTASVVCLLNNFYPREAKVQWKVDNALQSGNSQESVTEQDSKDSTYSLSSTLTLSKADYEKHKVYACEVTHQGLSSPVTKSFNRGEC
notes: Atezolizumab heavy (Knob) and light chain; Canakinumab VL-IgG1 constant region (hole); also called Construct BsAb18
Turning to B4, the binding result in test [1] is “binds”.

B5: BsAb25 (bispecific antibody)
heavy: not shown
light: EIVLTQSPDFQSVTPKEKVTITCRASQSIGSSLHWYQQKPDQSPKLLIKYASQSFSGVPSRFSGSGSGTDFTLTINSLEAEDAAAYYCHQSSSLPFTFGPGTKVDIKRTVAAPSVFIFPPSDEQLKSGTASVVCLLNNFYPREAKVQWKVDNALQSGNSQESVTEQDSKDSTYSLSSTLTLSKADYEKHKVYACEVTHQGLSSPVTKSFNRGEC
notes: Canakinumab IgG1 heavy chain-(G4S)4-Atezolizumab scFv (VH G44C-(G4S)4-VL Q100C); also called Construct BsAb25
With B5, the binding result in test [3], in test [4] and in test [1] was “binds” throughout.

B6: BsAb29 (bispecific antibody)
heavy: not shown
light: EIVLTQSPDFQSVTPKEKVTITCRASQSIGSSLHWYQQKPDQSPKLLIKYASQSFSGVPSRFSGSGSGTDFTLTINSLEAEDAAAYYCHQSSSLPFTFGPGTKVDIKRTVAAPSVFIFPPSDEQLKSGTASVVCLLNNFYPREAKVQWKVDNALQSGNSQESVTEQDSKDSTYSLSSTLTLSKADYEKHKVYACEVTHQGLSSPVTKSFNRGEC
notes: also called Construct BsAb29
For B6, the binding result in test [3], in test [5], in test [6], in test [7] and in test [8] was “binds” in each case.
